According to the nanobody polyreactivity screen of Harvey et al. (2022):

Test: yeast display, Sf9 membrane polyspecificity reagent, FACS + sequencing; frameworks hold sequencing errors
In short: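 In a synthetic yeast display library (Saccharomyces cerevisiae BJ5465), nanobody expression was induced with galactose for 36–48 hours. FACS gates were set low and high (top ~1%) using anti-HA fluorescence for expression and streptavidin fluorescence for binding of the Sf9 membrane reagent. Each polyreactivity label is drawn from the gate of origin.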

Row | Sequence | polyreactivity (PSR sort gate)
1 | QVQLVESGGGLVQAGGSLRLSCAASGSTFDAYAMGLYRQAPGKERELVAAITNAGSTNYADSVKGRFTISRDNAKNTVYLQMNSLKPEDTAVYYCATDWYHRYLDGRYDYWGQGTQVTVSS | low polyreactivity
2 | QVQLVESGGGLVQAGGSLRLSCAASGSTFDAYDMGWYRQAPGTERELVADINWSGGITYYADSVKGRFRISRDNAKNTVYLQMNSLKPEDTAVYYCNADASFYSRVNYWGQGTQVTVSS | high polyreactivity
3 | QVQLVESGGGLVQAGGSLRLSCAASGSTFDDNAMGWYRQAPGKERELVAGISTNGGSTSYADSVKGRFTISRDNAKNTVYLQMNSLKPEDTAVYYCAKGMYVQFDYWGQGTQVTVSS | low polyreactivity
4 | QVQLVESGGGLVQAGGSLRLSCAASGSTFDDNAMGWYRQAPGKERELVASITYRGGSTYYADSVKGRFTISRDNAKNTVYLQMNSLKPEDTAVYYCNADYTGAEYDYWGQGTQVTVSS | low polyreactivity
5 | QVQLVESGGGLVQAGGSLRLSCAASGSTFDFNAMGWYRQAPGKERELVAAITGSGGSTDYADSVKGRFTISRDNAKNTVYLQMNSMKPEDTAVYYCNAGKTIDYRDGVGYDHWGQGTQVTVSS | low polyreactivity
6 | QVQLVESGGGLVQAGGSLRLSCAASGSTFDFNAMGWYRQAPGKERELVAAITYSAGSTYSADSVKGRFTISRDNAQNTVDLQMNSLKPEDTAVYYCAAEDVYPGSIDMDDWGQGTQVTVSS | low polyreactivity
7 | QVQLVESGGGLVQAGGSLRLSCAASGSTFDGNAKGWYRQAPGKERELVATINSGSSTNYADSVKGRFTISRDNAKNTVYLQMISLKPEDTAVFYCNVDSGSDSLVYSVRYNYWGQGTQVTVSS | low polyreactivity
8 | QVQLVESGGGLVQAGGSLRLSCAASGSTFDGNAMGWYRQAPGKERELVATINSDDSKNYADSVKGRFTISRDNAKNTVYLQMNSLKPEDTAVYYCAARLYVTPILSYVERYTNDYWGQGTQVTVSS | low polyreactivity
9 | QVQLVESGGGLVQAGGSLRLSCAASGSTFDGNTMGWYRQAPGKERELVAAISGSGGSTYYADSVKGRFTISRDNAKKTVYLQMNSLKPEDTAVYYCAARRIHTTSSRGYYWGQGTQVTVSS | high polyreactivity
10 | QVQLVESGGGLVQAGGSLRLSCAASGSTFDGYAMGWYRQAPGKERELVAAISRSGGRTYNADSVKGRFTISRDYAKNTVYLQMNSLKPEDTAVYYCAAYKPRPQYTDDDYWGQGTQVTVSS | high polyreactivity
11 | QVQLVESGGGLVQAGGSLRLSCAASGSTFDHYTMGWYRQAPGKERELVAAINRIGDSTYYADSVKGRCTISRDNAKNTVYLQMTSLKPEDTAVYYCNTVSLSLRFDYWGQGTQVTVSS | high polyreactivity
12 | QVQLVESGGGLVQAGGSLRLSCAASGSTFDIYALGWDRQAPGKEREMVAVISGGDGSTYYADSVKGRFTISRDNEKNTVYLQMNSLKPEETAVYYFAADRGTVSYLYSPRAVDYWGQGTQVTVSS | low polyreactivity
13 | QVQLVESGGGLVQAGGSLRLSCAASGSTFDIYAMGWYRQAPGKERELVAAISVSDVDTYYADSVKGRFTISRDNAKNTVYLQMNSLKPEDTAVYYCNAERFWPWDYDYWGQGTQVTVSS | high polyreactivity
14 | QVQLVESGGGLVQAGGSLRLSCAASGSTFDIYAMGWYRQAPGKERELVAAITFSGGSTYADSVKGRFTISRDNAKNTVYLQMNSLKPEDTAVYYCAVDGGEFSSYGYWGQGTQVTVSS | low polyreactivity
15 | QVQLVESGGGLVQAGGSLRLSCAASGSTFDKNAMGWYRQAPGKERELVAAITWRGGRTYYADSVKGRFPISRDNAKNTVYLQMNSLKPEDTAVYYCNKVSWEQMDYWGQGTQVTVSS | low polyreactivity
16 | QVQLVESGGGLVQAGGSLRLSCAASGSTFDKYTMGWYRQAPGKDRELVAAISWSGGSTYASSVKGRFTMSRDNAKNTVYLQMTCLKPEDTAVYSCAARYRNYDLWLGNRRGSYYSWGQGTQVTVSS | high polyreactivity
17 | QVQLVESGGGLVQAGGSLRLSCAASGSTFDLYAMGWYRQAPGKERELVAAISSSGGRTYYADAVKGRFTISRDNAKNTVYLQMNSLKPEDTAVYDCAAVGYKYSRYDYWGQGTQVTVSS | high polyreactivity
18 | QVQLVESGGGLVQAGGSLRLSCAASGSTFDPNAMGWYRQAPGKERELVAVIDSGDGTTYYADSVKGRFTISRDNAKNTVYLQMNSLKPEDTAVYYCAVDESTSYYDDHEDYWGQGTQVTVSS | low polyreactivity
19 | QVQLVESGGGLVQAGGSLRLSCAASGSTFDPNTKGWYRQAPGKERELVATITSVDSTNYADSVKGRFTISRDNANNTVYLQMNSLKTEDTAVYYCNADFVRVFFYAYDYWGQGTQVTVSS | low polyreactivity
20 | QVQLVESGGGLVQAGGSLRLSCAASGSTFDPNVMGWYRQAPGKERELVAVITTTGVSTYYADSVKGRFTISRDNAKNTVYLQMNSLKPEDTAVYYCNAKWYWYLTRDAYRYRYTYDYWGQGTQVTVSS | low polyreactivity
21 | QVQLVESGGGLVQAGGSLRLSCAASGSTFDPYAMGWYRQAPGKERELVAAITGGGSTNYADSVKGRFTISRDNAKNTVYLQMNSLKPEDTAVYYCAATIPKPYHSGLRLLGQGTQVTVSS | low polyreactivity
22 | QVQLVESGGGLVQAGGSLRLSCAASGSTFDPYAMGWYRQAPGKERELVATITYSGGRTYYADSVKGRFTISRDNAKNTVYLQMNSLKPEDTAVYYCAARVYTHYREFDYWGQGTQVTVSS | low polyreactivity

Row | Sequence | polyreactivity (PSR sort gate)
23 | QVQLVESGGGLVQAGGSLRLSCAASGSTFDPYAMGWYRQAPGKESELVAAISRNGGRTYYADSVKGRFTISRDNAKNTVYLQMNSLTPEDTAVYYCAARSTGYGSTGRLLWYGHWGQGTQGTVSS | high polyreactivity
24 | QVQLVESGGGLVQAGGSLRLSCAASGSTFDRNAMGWYRQAPGKERELVAAINWRGGSTYYADSVKGRFTISRDNAKNTVYLQMNSLKPEDTAVYYCAKRQYSSDGRGFGYWGQVTQVTVSS | high polyreactivity
25 | QVQLVESGGGLVQAGGSLRLSCAASGSTFDRNAMGWYRQAPGKERELVAAISRRGGRTYYADSVKGRFTISRDNAKNTVYLQMNSLKPEDTAVYYCAAGKITFPMDYWGQGTQVTVSS | high polyreactivity
26 | QVQLVESGGGLVQAGGSLRLSCAASGSTFDRNVMGWYRQAPGKERELVAAISFSGGSTYYADSVKGRFTISRDTAKNTVYLQMNSLKPEDTAVYYCAADDGYSYIYAAGDYWGQGTQVTVSS | low polyreactivity
27 | QVQLVESGGGLVQAGGSLRLSCAASGSTFDRNVMGWYRQAPGKERELVAAISRVSSTNYADSVKGRFTISRDNAKNTVYLQMNSLKPEDTAVYYFAADGAGSIMNYWGQGTQVTVSS | low polyreactivity
28 | QVQLVESGGGLVQAGGSLRLSCAASGSTFDRYALGWYRQAPGKERELVAAITRGGSTYYADSVKGRFTISRDNAKNTVYLQLNSLKPDDTAVYYCAAAHWWVRVRGARYSYWGHGTQVTVSS | high polyreactivity
29 | QVQLVESGGGLVQAGGSLRLSCAASGSTFDRYAMGWYRQAPGKERELVAAISWSGGSTYYADSVKGRFTISRDNAKNTVYLQMNSLKREDTAVYYCARRYARITPVYPPLNYWGQGTQVTVSS | high polyreactivity
30 | QVQLVESGGGLVQAGGSLRLSCAASGSTFDRYAMGWYRQAPGKERELVAAITRGGSTYYADSVKGRFTISRDNAKNTVYLQMNSLKPEDTAVYYCAAAQWWFRVRGARYYYWGQGTQVTVSS | high polyreactivity
31 | QVQLVESGGGLVQAGGSLRLSCAASGSTFDSNAMGWYRQAPGKERELVAAIDYSSDSTYYADSVKGRFTISRDNAKNTVYLQMNSLKPEDTAVYYCAADIPPWGGDYWGQGTQVTVSS | low polyreactivity
32 | QVQLVESGGGLVQAGGSLRLSCAASGSTFDSNVMGWYRQAPGKERELVAAINYSGVRTYYADSVKGRFTISRDNAKNTVYLQMNSLKPEDTAVYYCNARLFSYRYPEGGYWGQGTQVTVSS | high polyreactivity
33 | QVQLVESGGGLVQAGGSLRLSCAASGSTFDSNVMGWYRQAPGKEWELVAAISIGDSTNYADSVKGRFTISRDNAKKTVYLQMNSLKPEDTAVYSCNATYSRGGYWYFGFDWGQGTQVTVSS | low polyreactivity
34 | QVQLVESGGGLVQAGGSLRLSCAASGSTFDSYAMGRYRQAPGKERELVAAITNGGSTYYADSVKGRFTISRDNAKNTVYLQMHSLKPEDTAGYYCATDDYLLDNLYDYWGQGTQVTVSS | low polyreactivity
35 | QVQLVESGGGLVQAGGSLRLSCAASGSTFDSYAMGWYRQAPGKERELVAAITTTGGSTFYADSVKGRFTISRDNAKNTVYLQMNSLKPEDTAVYFCAADDGWQEFEYWGQGTQVTVSS | low polyreactivity
36 | QVQLVESGGGLVQAGGSLRLSCAASGSTFDSYVMGLYRQAPGKERELFAAISSDDSTYYADSVKGRFTISRDNAKNTVYLQMNSLKPEDTAVYYCAATNFRDYYWSWKYYYWGQGTQVTVSS | low polyreactivity
37 | QVQLVESGGGLVQAGGSLRLSCAASGSTFDTNAMGWYRQAPGKERELVAAITSGGNTYADSVKGRFTISRDNAKNTVYLQMNSLKPEDTAVYYCAAEDVYTGWYDYWGQGTQVTVSS | low polyreactivity
38 | QVQLVESGGGLVQAGGSLRLSCAASGSTFDTYAMGGYRQAPGKERELVAAISYPGGNTYYADSVKGRFTISRDNAKNTVYLQMNRLKPEDTAVYYCNADVVDGGLAYDYWGQGTQVTVSS | low polyreactivity
39 | QVQLVESGGGLVQAGGSLRLSCAASGSTFDTYAMGWYRPAPGKERELVAAINSGGGTNYADSVKGLFTISRDNAKNTVYLQMNSLKPEDSSVYYCSTDIRRDAGGVDFDYWGQGTQLTVSS | low polyreactivity
40 | QVQLVESGGGLVQAGGSLRLSCAASGSTFDTYAMGWYRPAPGKERELVAAISRSGTSTYYADSVKGRFTISRDNAKNTVYLQMNSLKPEDSAVYYCAAYGPRVNGEIGREYYYWGQGTQVTVSS | low polyreactivity
41 | QVQLVESGGGLVQAGGSLRLSCAASGSTFDTYAMGWYRQAPGKERELVAAISSGGSTNYADSVKGRFTISRDNAKNTVYLQMNSLKPEDTAVYYCADSNKSVFPVYGTLDEYWGQGTQVTVSS | low polyreactivity
42 | QVQLVESGGGLVQAGGSLRLSCAASGSTFDTYAMGWYRQAPGKERELVAAISYSGASTYYADSVKGRFTISRDNAKNTVYLQMNSLKPEDTAVYYCSADGGYYWLYDYWGQGTQVTVSS | low polyreactivity
43 | QVQLVESGGGLVQAGGSLRLSCAASGSTFDVNALGWYSQAPGKDRELVAAISWNSGSTYYADSVKGRFTISRDNAKNTVYLQMNSLKPEDTAVYYCAATYGTGRRSKYGYWGQGTQVTVSS | high polyreactivity
